Data reported in patent US7273747B2, “Cell having amplified signal transduction pathway responses and uses therefor” (Cadus Technologies, Inc., priority 1998, dated 2007).
Square brackets hold non-standard residues; d marks the D form. Ends that are not written are not given here. NMeF = CN[C@@H](Cc1ccccc1)C(=O)O; Cha = N[C@@H](CC1CCCCC1)C(=O)O; dCha = N[C@H](CC1CCCCC1)C(=O)O

Target: T1, C5a receptor (Homo sapiens, UniProt P21730)
T1 construct: expressed in transfected cells; host or cells: Saccharomyces cerevisiae strain CY10103 (sibling strains CY13970/13971 and CY13974/13975), carrying gpa1(41)-Gαi2, with a FUS1p-lacZ reporter plasmid
T1 sequence (P21730 1-350): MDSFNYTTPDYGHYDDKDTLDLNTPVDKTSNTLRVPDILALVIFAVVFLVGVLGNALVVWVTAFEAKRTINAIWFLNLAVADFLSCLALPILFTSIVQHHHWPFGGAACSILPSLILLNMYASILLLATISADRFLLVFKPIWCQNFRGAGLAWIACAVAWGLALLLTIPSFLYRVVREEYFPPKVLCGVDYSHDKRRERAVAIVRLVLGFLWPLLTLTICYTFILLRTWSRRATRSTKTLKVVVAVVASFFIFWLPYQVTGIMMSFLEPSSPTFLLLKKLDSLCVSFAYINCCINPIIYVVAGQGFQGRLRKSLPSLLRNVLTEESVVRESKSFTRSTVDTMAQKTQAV
Assay: FUS1p-lacZ β-galactosidase reporter assay in yeast expressing a heterologous C5a receptor
Type: cell-based
Details: yeast strains carrying C5a receptor plasmid and FUS1p-lacZ reporter; 4 hours incubation with varying concentrations of ChaCha
Text: Yeast strains expressing heterologous GPCRs can be constructed as previously described (see e.g. WO 94/23025). In this example, to create a yeast strain expressing a heterologous GPCR and a Ste5 expression plasmid, yeast strain CY10103 (genotype MATa ste18 g6-3841 far1D1442 cyh2 tbt1-1 FUS1p-HIS3 can1 ste14::trp1::LYS2 ste3D1156 gpa1(41)-Gαi2 lys2 ura3 leu2 trp1 his3 ade2D3447 ade8D3457) was transformed by electroporation with a C5a receptor-bearing plasmid (Cp1303; genotype LEU2 PGKp-C5aR 2m-ori REP3 bla), a reporter plasmid (Cp1584; genotype bla TRP1 2m-ori FUS1p-lacZ), and plasmids that express either wild-type STE5p (Cp5373; genotype URA3 CEN6 ARSH4 bla FUS1p-STE5), a hyperactive STE5p mutant (Cp5643; genotype URA3 CEN6 ARSH4 bla FUS1p-STE5(S18R,T52M)), or no STE5p (Cp1015; genotype URA3 CEN6 ARSH4 bla). Triple transformants were selected on SC plates lacking uracil, tryptophan, and leucine. […]

For “N-methyl-Phe-Lys-Pro-dCha-Cha-dArg ([NMeF]KP[dCha][Cha][dR]) [ChaCha, C5a receptor ligand; Cha is cyclohexylalanine]”, the “responsiveness to ligand, monitored as β-galactosidase activity (agonist activity at the C5a receptor)” value was “potent agonist”.
